T1: human CD22-ECD-His protein (human, UniProt P20273 20-687)
T1 construct: Recombinant, from HEK293E cells; also called hCD22-ECD-His; human CD22-His protein; not shown: His tag
T1 sequence: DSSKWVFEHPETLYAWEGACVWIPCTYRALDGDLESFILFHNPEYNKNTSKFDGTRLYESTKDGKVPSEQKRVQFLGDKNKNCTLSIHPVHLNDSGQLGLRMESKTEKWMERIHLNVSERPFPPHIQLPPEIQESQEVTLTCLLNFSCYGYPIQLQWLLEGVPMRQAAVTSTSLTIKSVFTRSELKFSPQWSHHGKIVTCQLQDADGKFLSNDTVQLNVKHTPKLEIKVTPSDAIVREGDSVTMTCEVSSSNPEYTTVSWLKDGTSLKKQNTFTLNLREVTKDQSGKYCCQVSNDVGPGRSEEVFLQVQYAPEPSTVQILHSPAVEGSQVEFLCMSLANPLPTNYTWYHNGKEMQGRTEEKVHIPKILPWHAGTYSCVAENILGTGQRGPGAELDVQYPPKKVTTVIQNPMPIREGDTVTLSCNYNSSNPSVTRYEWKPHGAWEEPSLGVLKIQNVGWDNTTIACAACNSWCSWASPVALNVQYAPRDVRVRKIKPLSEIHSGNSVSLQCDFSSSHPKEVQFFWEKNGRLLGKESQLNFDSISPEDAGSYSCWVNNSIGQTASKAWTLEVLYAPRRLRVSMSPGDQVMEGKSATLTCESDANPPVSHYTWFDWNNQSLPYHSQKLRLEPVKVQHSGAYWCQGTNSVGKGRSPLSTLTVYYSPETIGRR

T2: human CD22 domain5-7-His (human, UniProt P20273 414-687)
T2 construct: also called hCD22 domain5-7-His; not shown: His tag
T2 sequence: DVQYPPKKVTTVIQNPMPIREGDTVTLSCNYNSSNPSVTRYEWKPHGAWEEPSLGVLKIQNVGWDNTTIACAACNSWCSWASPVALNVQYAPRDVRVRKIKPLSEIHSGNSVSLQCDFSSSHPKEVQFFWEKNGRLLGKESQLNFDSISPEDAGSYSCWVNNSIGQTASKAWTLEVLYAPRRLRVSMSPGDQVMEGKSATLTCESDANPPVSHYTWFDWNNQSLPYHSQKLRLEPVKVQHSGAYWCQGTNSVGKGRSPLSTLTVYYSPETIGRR


Legend:
[1] = molecular target: T1, human CD22-ECD-His protein; assay: SPR (Biacore), antibody captured on Protein A chip, CD22-ECD-His in solution
Description: Sample buffer and running buffer were HBS-EP+(10 mM HEPES, 150 mM NaCl, 3 mM EDTA, 0.05% surfactant P20) (GE Healthcare; BR-1006-69). The flow-through cell was set to 25° C. The sample block was set to 16° C. Both were pretreated with the running buffer. In each cycle, the antibody to be tested was first captured with a Protein A chip, then a single concentration of CD22 antigen protein was injected. The binding and dissociation process of the antibody and the antigen protein was recorded, and finally Glycine pH 1.5 (GE Healthcare; BR-1003-54) was used to complete chip regeneration. Binding was measured by injecting different concentrations of recombinant human CD22-ECD His protein in solution for 240 s with a flow rate of 30 μL/min. The concentration started from 200 nM (see the detailed results for the actual concentration in the test) and was diluted at 1:1, making a total of 5 concentrations. The dissociation phase was monitored for up to 600 s and was triggered by switching from sample solution to running buffer. The surface was regenerated by washing with a 10 mM of glycine solution (pH 1.5) for 30 s at a flow rate of 30 μL/min. Bulk refractive index difference was corrected by subtracting the response obtained from the goat anti-human Fc surface. Blank injection was also subtracted (=double reference). For calculation of apparent KD and other kinetic parameters, Langmuir 1:1 model was used.

[2] = molecular target: T2, human CD22 domain5-7-His; assay: ELISA, plate coated with human CD22 domain5-7-His

Row | Kd [1] [nM] | koff [1] [s⁻¹] | kon [1] [M⁻¹ s⁻¹] | binding result [2] | Binder
1 | 10.7 | 0.000744 | 69500 | no binding | F2.70.2 (antibody, human IgG1, lambda, V domains shown, Chimeric IgG1 lambda) VH: EVQLVESGGGLVKPGGSLKLSCAASGFTFSDYGMNWFRQAPEKGLEWVAYISRGSHTIYYADTVKGRFTISRDNAKNTLFLQMTSLRSNDTAMYYCVRMAGYYAMDYWGQGTSVTVSS VL: QLVLTQSSSASFSLGASAKLTCTLSSQHSSYIIEWYQQQPLKPPKYVMELKKDGSHSTGDGIPDRFSGSSSGADRYLSISNIQPEDEAIYICGVGDTIKEQFVYVFGGGTKVTVLG
2 | 2.93 | 0.00066 | 226000 | no binding | F2.127.11 (antibody, human IgG1, lambda, V domains shown, Chimeric IgG1 lambda) VH: QVTLKESGPGILQPSQTLSLTCSFSGFSLSTFGMGVGWIRQPSGKGLEWLAHIWWDDDKHYNPALKSRLTISKDTSRNQVFLKIANVDTADGATYFCARDNWVSSLDYWGQGTSVIVSS VL: QPVITQSSSASFSLGASAELTCTLSSQHSTYTIEWYQQQPLKPPKYVMGLKKDGSHSTGDGIPDRFSGSSSGADRYLSISNIQPEDEAIYICGVSDTIKEQFVYVFGGGTKVTVLG
3 | 8.54 | 0.00061 | 71400 | no binding | F2.104.10 (antibody, human IgG1, lambda, V domains shown, Chimeric IgG1 lambda) VH: EVQLVESGGGFVKPGGSLKLSCAASGFTFSDYGMNWFRQAPEKGLEWVAYISRGSHTIYYADTVKGRFTISRDNAENTLFLQMTSLRSNDTAMYYCVRMAGYYAMDYWGQGTSLTVSS VL: QLVLTQSSSASFSLGASAKLTCTLSSQHSSYIIEWYQQQPLKPPKYVMEVKKDGSHSTGDGIPDRFSGSSSGADRYLSISNIQSEDEAIYICGVGDTIKEQFVYVFGGGTKVTVLG
4 | 0.417 | 0.000113 | 270000 | no binding | F1.257.3 (antibody, human IgG1, kappa, V domains shown, Chimeric IgG1 kappa) VH: QVQLQQSGPELARPGASVKLSCKASGYTFTSYGISWVKQRTGQDLEWIGEIYPKLGTTYYNEKFKDKATLTTDRSSSTAYMALRSLTSEDSAVYFCACPHYYATRGGDYWGQGTTLTVSS VL: EIVLTQSPATLSVTPGDSVTFSCRASQSISNHLHWYQQKSHESPRLLIRYASQSISGIPSRFSGSGSGTDFTLSLSSVETEDFGVYFCQQSHSWPYTFGGGTKLEIAR
5 | 0.586 | 7.42e-05 | 127000 | no binding | F2.55.1 (antibody, human IgG1, lambda, V domains shown, Chimeric IgG1 lambda) VH: QVTLKESGPGILQPSQTLSLTCSFSGFSLSTFPLGVGWIRQPSGKGLEWLAHVWWNDDDYYNPALKSRLTISKDTSNTRVFLSVASVDTAETATYYCARLNWDRWYFDVWGTGTTVTVSS VL: QLVLTQSSSASFSLGASAKLTCTLSSQHSAYTVEWYQQQPLKPPKYVMELKKDGSHSTGDGIPDRFSGSSSGADRYLSISNIQPEDEAIYICGVGDTVKEQFVFGGGTKVTVLG
6 | 10 | 0.000663 | 66100 | no binding | F2.42.9 (antibody, human IgG1, lambda, V domains shown, Chimeric IgG1 lambda) VH: QVTLKESGPGILQPSQTLSLTCSFSGFSLSTFDRGVGWIRQPSGKGLEWLAHIWWNDKKFYNPVLKSRLTISKDTSKNQVFLTIANVDSADTATYSCARIVWDKYYFDYWGQGIPLTVSS VL: QLVLTQSSSASFSLGASAKLTCTLSSQHSAYTIEWYQQQPLKPPKFVMDLKKDGSHSTGDGIPARFSGSSSGADRYLTISNIQPEDEAIYICGVGDTIKEQYVFGGGTKVTVLG
7 | 4970 | 0.101 | 20400 | no binding | F2.343.16 (antibody, human IgG1, lambda, V domains shown, Chimeric IgG1 lambda) VH: QVQLKQSGPGLVQPSQSLSITCTVSGFSLTGYGVQWVRQSPGKGLEWLGVIWGGGGTDYNAAFISRLNIIKDNSKSQVFFKMNSLQADDTAIYYCARYSKYGHFDVWGTGTAVTVSS VL: QAVVTQESALTTSPGETVTLTCRSSTGAVTTSNYANWVQEKPDHLFTGLIGGTYNRVPGVPARFSGSLIGDKAALTITGAQTEDEAIYFCALWYSNHFWVFGGGTKLTVLG
8 | 29.3 | 0.000399 | 13600 | no binding | F1.62.10 (antibody, human IgG1, kappa, V domains shown, Chimeric IgG1 kappa) VH: QVQLQQSGPELVKPGASVKISCKASGYEFSSIWMNWVKQRPGEGLEWIGRIFPGDGEINYNEKFKGKATLTADRSSTTAYMQLSSLTSEDSAVYFCAGWRIYYGTYGAMDYWGQGTSVTVSS VL: DIQMTQITSSLSASLGDRVTISCRASQDIGNYLNWYQQKPDGTVKLLIYYTSRLHSGVPSRFSGSGSRTDYSLTISNLQQEDIATYFCQQGNTLPWTFGGGTKLEIKR
9 | 1.7 | 0.000203 | 120000 | no binding | F1.7.6 (antibody, human IgG1, kappa, V domains shown, Chimeric IgG1 kappa) VH: EIQLQQSGPELVKPGTSVKVSCKASGYDFTRYNMYWVKQSHGKSLEWIGYIDPYNGDTRYNQKFKGKATLTVDKSSSTAYMHLNSLTSEDSAVYYCEAIYYDMEGYALDYWGQGTSVTVSS VL: DIVMSQSPSSLAVSVGEKVTMSCKSSQSLLYSNNQKNYLAWYQQKPGQSPKKLIYWASTRESGVPDRLTGSGSGTDFTLTISSVTAEDLAVYYCQQFYSYPWTFGGGTKLEIKR
10 | 6.73 | 0.000423 | 62900 | no binding | F1.280.1 (antibody, human IgG1, kappa, V domains shown, Chimeric IgG1 kappa) VH: QIQLVQSGPELKKPGETVKISCKASGYTFTTYGMSWVKQTPGKGLTWMGWINTDSGVPTYADDFKRRFAFSLEASATTAYLQINNLKNEDTATYFCARGGPDYWGQGTTLTVSS VL: DILLTQSPATLSVTPGETVSLSCRASQSIYKNLHWYHQKSHRSPRLLIKYASDSISGIPSRFTGSGSGTNFTLSINSVKPEDEGIYYCLQGYIVPLTFGAGTKLELKR
11 | 0.458 | 0.00119 | 2.6e+06 | no binding | F1.245.2 (antibody, human IgG1, kappa, V domains shown, Chimeric IgG1 kappa) VH: EVQLQQSGAELVKPGASVKLSCTGSGFNIKDYYIHWVKQRTEQGLEWMGRIDPEDGETEYAPKFQDEATITSDTSSNTAYLQLSSLTYEDTAVYYCAREAAGYFYRGSSYGYFDVWGTGTTVTVSS VL: DFQMTQTTSFLSASLGDRVTISCSASQDISNYLNWYQQKPDGTVKLLIYYTSSLHSGVPSRFSGSGSGTDYSLTISNLEPEDIATYYCQQYSMLPYTFGGGTKLEMER
12 | 80 | 0.000393 | 4910 | no binding | F2.121.9 (antibody, human IgG1, lambda, V domains shown, Chimeric IgG1 lambda) VH: EVQLVESGGGLVKPGGSLKLSCAASGFTFSDYVMSWIRQTPEKRLEWVATISDAGSYTFYPDNLKGRFTISRDNAKNNLYLQMNHLTSEDTAFYYCAIIYFGNYGGYWGQGTLVTVSV VL: QAVVTQESALTTSPGGTVVLTCRSNTGAVTTSNYANWVQEKPDHLFTGLIGGTSNRAPGVPVRFSGSLIGDKAALTITGAQTEDDAMYFCALWYSTHWVFGGGTKLTVLG
13 | 44.8 | – | – | no binding | F1.231.15 (antibody, IgG1, V domains shown, Chimeric IgG1 kappa) VH: QVQLQQPGAELVKPGASVKLSCKTSGYTFTIYWMQWVKQRPGRGLEWIGRIDPHSGDTHYNENFTTKVTLTVDETSNTAYMHLSGLTSEDSAVYYCARRDYSYYVLDYWGQGTSVTVSS VL: DVVLTQTPLSLPVSLGDQASISCRSSQSLVHINGDTYLHWYLQKPGQSPKLLIYTVFNRFSGVPDRFSGSGSGTDFTLKISRVEAEDLGAYFCSQSTHVPYTFGGGTKLEIKR
14 | 5.88 | 0.00118 | 201000 | no binding | F1.161.7 (antibody, human IgG1, kappa, V domains shown, Chimeric IgG1 kappa) VH: QVQLQQPGAELVKPGASVKMSCKASGYTFTSYWISWVKQRPGQGLEWIGDIYPGTGSSNYNEKFKSKATLTVDTSSSTAYMQLSSLTSEDSAVYYCARLKFEGIGYWGQGTTLTVSS VL: QIVLTQSPAIMSASLGEEITLTCSASSSVSYMHWFQQKSGTSPKLLIYSISNLASGVPSRFSGSGSGTFYSLTISSVEAEDAADYYCHQWSSYPWTFGGGTKLEIKR

— patent publication US20240084003A1 (SIMCERE ZAIMING PHARMACEUTICAL, published 2024)
